Assay results published in patent publication US20150098945A1 (Daiichi Sankyo, published 2015).

T1: human ROBO3 (pCI-hROBO3-transfected HEK293 cells) (human, UniProt Q96MS0 21-1386)
T1 sequence: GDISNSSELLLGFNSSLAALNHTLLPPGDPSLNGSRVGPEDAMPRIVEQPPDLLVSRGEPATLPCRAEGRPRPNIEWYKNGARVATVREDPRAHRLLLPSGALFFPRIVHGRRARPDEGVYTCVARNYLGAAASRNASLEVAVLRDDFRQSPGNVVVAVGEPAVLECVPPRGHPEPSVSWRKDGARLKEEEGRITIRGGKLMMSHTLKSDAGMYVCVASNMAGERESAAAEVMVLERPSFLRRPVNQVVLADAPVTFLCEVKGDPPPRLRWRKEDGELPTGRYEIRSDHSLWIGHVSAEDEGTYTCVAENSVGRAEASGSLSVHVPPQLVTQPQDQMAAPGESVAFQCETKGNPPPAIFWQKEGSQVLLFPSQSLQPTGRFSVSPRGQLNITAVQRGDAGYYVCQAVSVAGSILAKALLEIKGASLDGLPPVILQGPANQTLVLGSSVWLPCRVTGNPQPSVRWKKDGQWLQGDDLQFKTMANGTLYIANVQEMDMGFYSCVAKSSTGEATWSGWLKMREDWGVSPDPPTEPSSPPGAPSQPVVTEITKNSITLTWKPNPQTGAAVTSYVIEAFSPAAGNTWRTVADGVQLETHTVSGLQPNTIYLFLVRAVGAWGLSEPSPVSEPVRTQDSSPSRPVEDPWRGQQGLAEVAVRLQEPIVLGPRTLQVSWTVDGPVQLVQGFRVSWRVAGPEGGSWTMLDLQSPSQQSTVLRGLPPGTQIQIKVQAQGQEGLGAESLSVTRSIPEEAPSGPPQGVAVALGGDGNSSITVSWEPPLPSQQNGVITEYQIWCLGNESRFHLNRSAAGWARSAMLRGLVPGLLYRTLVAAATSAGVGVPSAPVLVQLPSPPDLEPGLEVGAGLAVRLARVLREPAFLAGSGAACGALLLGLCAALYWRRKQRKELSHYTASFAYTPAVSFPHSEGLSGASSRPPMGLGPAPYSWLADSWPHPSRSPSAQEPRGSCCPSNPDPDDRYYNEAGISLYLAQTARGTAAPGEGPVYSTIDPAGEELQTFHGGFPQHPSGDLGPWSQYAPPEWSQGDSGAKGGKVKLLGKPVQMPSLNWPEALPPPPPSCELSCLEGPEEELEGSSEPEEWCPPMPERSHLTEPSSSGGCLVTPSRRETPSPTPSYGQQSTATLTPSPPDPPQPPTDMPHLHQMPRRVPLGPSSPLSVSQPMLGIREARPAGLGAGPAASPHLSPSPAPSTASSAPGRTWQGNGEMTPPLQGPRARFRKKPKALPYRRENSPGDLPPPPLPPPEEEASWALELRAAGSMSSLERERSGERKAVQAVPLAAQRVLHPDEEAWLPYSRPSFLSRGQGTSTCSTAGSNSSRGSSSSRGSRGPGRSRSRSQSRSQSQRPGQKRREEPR


What follows are binders tested against T1, human ROBO3 (pCI-hROBO3-transfected …) (assay: flow cytometry (FC500), HEK293 cells transfected with pCI-hROBO3, FITC goat anti-human IgG Fc; control histogram IgG (human IgG)).

binding result	Binder
no binding (tested: 10 µg/mL)	humanized MAb1 antibody H-1143 (antibody, human IgG2, kappa, V domains shown, Human IgG2 / kappa constant regions; also called hMAb1-H2-type heavy chain + hMAb1-L2-type light chain) VH: EVQLVESGGGLVQPGGSLRLSCAASGFTFSTYAMSWVRQAPGKGLEWVATISQGGTYTYYPDSVKGRFTISRDNAKNTLYLQMNSLRAEDTAVYYCARLIYYDYLDYWGQGTLVTVSS VL: DIVMTQSPLSLPVTLGEPASISCRSSQSLENENKNLYLNWYLQKPGQSPQLLIYRVSNRFSGVPDRFSGSGSGTDFTLKISRVEAEDVGVYYCLQVTHVPWTFGPGTKVDIKR
no binding (tested: 10 µg/mL)	humanized MAb1 antibody H-2143 (antibody, human IgG2, kappa, V domains shown, Human IgG2 / kappa constant regions; also called hMAb1-H4-type heavy chain + hMAb1-L2-type light chain) VH: EVQLVESGGGLVQPGGSLRLSCAASGFTFSTYAMSWVRQAPGKRLEWVATISQGGTYTYYPDSVKGRFTISRDNAKNTLYLQMNSLRAEDTAVYYCARLIYYDYLDYWGQGTLVTVSS VL: DIVMTQSPLSLPVTLGEPASISCRSSQSLENENKNLYLNWYLQKPGQSPQLLIYRVSNRFSGVPDRFSGSGSGTDFTLKISRVEAEDVGVYYCLQVTHVPWTFGPGTKVDIKR
no binding (tested: 10 µg/mL)	humanized MAb1 antibody H-2140 (antibody, human IgG2, kappa, V domains shown, Human IgG2 / kappa constant regions; also called hMAb1-H4-type heavy chain + hMAb1-L1-type light chain) VH: EVQLVESGGGLVQPGGSLRLSCAASGFTFSTYAMSWVRQAPGKRLEWVATISQGGTYTYYPDSVKGRFTISRDNAKNTLYLQMNSLRAEDTAVYYCARLIYYDYLDYWGQGTLVTVSS VL: DIVMTQSPLSLPVTLGEPASISCRSSQSLENSNGNTYLNWYLQKPGQSPQLLIYRVSNRFSGVPDRFSGSGSGTDFTLKISRVEAEDVGVYYCLQVTHVPWTFGPGTKVDIKR
